Experimental data taken from paper PMC4747905.

Assays:
[1] = target: BRCT-Ab2p complex (UniProt P38398); assay: native MS; peak fractions from gel filtration, 15 μM protein, 300 mM ammonium acetate pH 7.6, nano-electrospray
[2] = target: BRCA1 BRCT domains (UniProt P38398); assay: native mass spectrometry, 15 µM; details: reference: Ab1p (pS406 only); sites S404
[3] = target: BRCA1 BRCT domains (UniProt P38398); assay: size exclusion chromatography, 1 mg/ml; details: sites S406
[4] = target: BRCA1 BRCT domains (UniProt P38398); assay: small angle X-ray scattering; details: reference: Ab1p (pS406 only); sites S404
[5] = target: BRCA1 BRCT domains (UniProt P38398); assay: size exclusion chromatography, 1:1 versus 2:2 complex; details: reference: Ab1p (pS406 only); sites S404

Substance: BRCT-Ab2p complex (from UniProt P38398 1646-1859)
- stoichiometry N [1]: 2

Substance: Abraxas 399-409 (from UniProt Q6UWZ7) Ab2p (pS404 pS406)
- binding against the reference [2]: stronger
- binding against the reference ([3]; reference: pS404-only peptide): gained
- binding against the reference [4]: stronger
- binding against the reference [5]: stronger

Substance: Abraxas 399-409 (from UniProt Q6UWZ7) pS406 peptide (Ab1p)
- binding against the reference ([3]; reference: unphosphorylated peptide): gained
